Test results taken from patent publication US20100261660A1 (published 2010).
Where a chain is given by its changes, count along the chain named.

B1: Round 1 CD28BP-126 (ligand)
chain: ITPKSVTKRVKETVMLSCDYSTSTEELTSLRIYWQKDSKMVLAILPGKVQVWPEYKNRTITDMNDNPRIVILALRLSDSGTYTCVIQKPDLKGAYKLEHLTSVRLMIRADFPVPTINDLGNPSPNIRRLICSTSGGFPRPHLYWLENGEELNATNTTVSQDPGTELYMISSELDFNVTNNHSIVCLIKYGELSVSQIFPWSKPKQEPPIDQLPFWVIIPVSGALVLTAVVLYCLACRHVARWKRTRRNEETVGTERLSPIYLGSAQSSG
notes: also called R1clone 126; Clone 126
B2: Round 2 CD28D8-9 (ligand)
chain: B1 chain with D90V
B3: Round 2 CD28F7-2 (ligand)
chain: ITPKSVTKRVKETVMLSCDYSTSTEELTSLRIYWQKDSKMVLAILPGKVQVWPEYKNRTITDMNDNPRIVILALRLSDSGTYTCVIQKPVLKGAYKLEHLASVRLMIRADFPVPTINDLGNPSPNIRRLICSTSGGFPEPRLAWMEDGEELNAVNTTVDQDLDTELYSVSSELDFNVTNNHSIVCLIKYGELSVSQIFPWSKPKQEPPIDQLPFWVIIPVSGALVLTAVVLYCLACRHVARWKRTRRNEETVGTERLSPIYLGSAQSSG
B4: Round 2 CD28E5-2 (ligand)
chain: B1 chain with S21N, T101A, V158L, G163E, E165K, H181R
B5: Round 2 CD28H11-3 (ligand)
chain: B1 chain with S21N, D90V, T101A, V158L, G163E, E165K, V229A
B6: Round 2 CD28BP-5 (ligand)
chain: B1 chain with S79K, I86V, D90V
B7: Round 2 CD28C6-1 (ligand)
chain: B1 chain with D90V, T101A, V239G
B8: Round 2 CD28D2-9 (ligand)
chain: B1 chain with S21N, D90V, V158L, G163E
B9: Round 2 CD28A4-5* (ligand)
chain: B1 chain with S21N, D90V, V158L, G163E, E165K
B10: Round 2 CD28BP-2 (ligand)
chain: B1 chain with D90V, T101A, V158L, G163E, E165K, C233R, L234P
B11: Round 2 CD28G2-8 (ligand)
chain: B1 chain with S21N, D90V, T101A, T115S
B12: Round 2 CD28F3-6 (ligand)
chain: B1 chain with V158L, G163E, E165K
B13: Round 2 CD28E9-6 (ligand)
chain: B1 chain with S21N, S79K, T101A
B14: Round 2 CD28A8-4 (ligand)
chain: B1 chain with S21N, D90V
B15: Round 2 CD28E10-6 (ligand)
chain: B1 chain with S21N, D90V, T101A, V158L, G163E
B16: Round 2 CD28BP-13 (ligand)
chain: B3 chain
B17: Round 2 CD28A6-1 (ligand)
chain: B1 chain with S21N, D90V, T101A, G163E, E165K, W215R, V229I
B18: Round 2 CD28C8-6 (ligand)
chain: B1 chain with S21N, D90V, T101A, D174G
B19: Round 2 CD28BP-4 (ligand)
chain: B1 chain with S21N, D90V, T101A, Y143C
B20: Round 2 CD28F8-4 (ligand)
chain: B1 chain with D90V, T101A, V158L, G163E, E165K
B21: Round 2 CD28BP-16 (ligand)
chain: B1 chain with S21N, D90V, T227A
B22: Round 2 CD28C11-5 (ligand)
chain: B1 chain with S21N, D90V, V184A
B23: Round 2 CD28A6-9 (ligand)
chain: B1 chain with S21N, D90V, T101A, W215L
B24: Round 2 CD28E2-4 (ligand)
chain: B1 chain with S79K, D90V, T101A
B25: Round 2 CD28B2-8 (ligand)
chain: B1 chain with S21N, S79K, D90V, T101A
B26: Round 2 CD28B4-3 (ligand)
chain: ITPKSVTKRVKETVMLSCDYNTSTEELTSLRIYWQKDSKMVLAILPGKVQVWPEYKNRTITDMNDNPRIVILALRLSDSGTYTCVIQKPVLKGAYKLEHLTSVRLMIRADFPVPTINDLGNPSPNIRRLICSTSGGFPRPHLYWLENGEELNATNTTLSQDPETKLYMISSELDFNMTSNHSFLCLVKYGDLTVSQTFYWQESKPTPSANQHLTWTIIIPVSAFGISVIIAVILTCLTCRNAAIRRQRRENEVEMQSCSQSP
B27: Round 2 CD28F3-1 (ligand)
chain: B26 chain with V90D, E149K
B28: Round 2 CD28B6-3 (ligand)
chain: B26 chain with V90D, E254K
B29: Round 2 CD28E2-5* (ligand)
chain: B26 chain with I1T, L76P, T101A
B30: Round 2 CD28E8-6 (ligand)
chain: B26 chain with L158V, M177T
B31: Round 2 CD28D5-6 (ligand)
chain: B26 chain with N21S, T197S
B32: Round 2 CD28BP-14 (ligand)
chain: GISQVTKSVKEMAALSCDYNISIDELARMRIYWQKDQQMVLSIISGQVEVWPEYKNRTITDMNDNPRIVILALRLSDSGTYTCVIQKPVLKGAYKLEHLASVRLMIRADFPVPTINDLGNPSPNIRRLICSTSGGFPRPHLYWLENGEELNATNTTVSQDPGTELYMISSELDFNVTNNHSIVCLIKYGELSVSQIFPWSKPKQEPPIDQLPFWVIIPVSGALVLTAVVLYCLACRHVARWKRTRRNEETVGTERLSPIYLGSAQSSG
B33: Round 2 CD28F3-5 (ligand)
chain: SGITPKSVTKRVKETVMLSCDYNTSTEELTSLRIYWQKDSKMVLAILPGKVQVWPEYKNRTITDMNDNPRIVILALRLSDSGTYTCVVQKNENGSFRREHLTSVTLSIRADFPVPSITDIGHPAPNVKRIRCSASGGFPEPRLAWMEDGEELNAVNTTVDQDLDTELYSVSSELDFNVTNNHSIVCLIKYGELSVSQIFPWSKPKQEPPIDQLPFWVIIPVSGALVLTAVVLYCLACRHVARWKRTRRNEETVGTERLSPIYLGSAQSSG
notes: also called GD28F3-5
B34: Round 2 CD28G1-5 (ligand)
chain: SGITPKSVTKRVKETVMLSCDYSTSTEELTSLRIYWQKDSKMVLAILPGKVQVWPEYKNRTFPDIINNLSLMILALRLSDKGTYTCVVQKNENGSFRREHLTSVTLSIRADFPVSSITDIGHPAPNVKRIRCSASGGFPEPRLAWMEDGEELNAVNTTVDQDLDTELYSVSSELDFNVTNNHSIVCLIKYGELSVSQIFPWSKPKQEPPIDQLPFWVIIPVSGALVLTAVVLYCLACRHVARWKRTRRNEETVGTERLSPIYLGSAQSSG
B35: Round 2 CD28B6-6 (ligand)
chain: ITPKSVTKRVKETVMLSCDYSTSTEELTSLRIYWQKDSKMVLAILPGKVQVWPEYKNRTITDMNDNPRIVILALRLSDKGTYTCVIQKPVLKGAYKLEHLTSVTLSIRADFPVPSITDIGHPAPNVKRIRCSASGGFPEPRLAWMEDGEELNAVNTTVDQDLDTELYSVSSELDFNATNNHSIVCLIKYGELSVSQIFPWSKPKQEPPIDQLPFWVIVPVSGALVLTAVVLYCLACRHVAR

Target: T1, Soluble CD28-Ig (extracellular domain of human CD28 fused to the Fc portion of human IgG1) (human, UniProt P10747 19-152, biotin-conjugated (NHS-biotin) in the FACS binding assays)
T1 construct: extracellular domain; bought from R&D Systems; also called sCD28-Ig; CD28-Ig Fc; not shown: Fc portion of human IgG1
Assay: competitive FACS on transfected cells, biotin-sCD28-Ig with FITC-sCTLA-4-Ig; grade 0-2 of CD28/CTLA-4 ratio vs WT hB7-1

B1 and B2 are the same in “Binding Score” value: 1 for the first, 1 for the second.

Going from B3 to B4, the “Binding Score” value falls from 2 to 0.

Compared with B5, B6 is higher in “Binding Score” value: 1 for the first, 2 for the second.

B7 and B8 are the same in “Binding Score” value: 1 for the first, 1 for the second.

Going from B9 to B10, the “Binding Score” value rises from 1 to 2.

Going from B11 to B12, the “Binding Score” value falls from 1 to 0.

Going from B13 to B14, the “Binding Score” value rises from 0 to 1.

First: B15
Second: B16
The “Binding Score” value of the first is lower: 1 for the first, 2 for the second.

Going from B17 to B18, the “Binding Score” value rises from 1 to 2.

First: B19
Second: B20
The “Binding Score” value of the first is higher: 2 for the first, 1 for the second.

B21 and B22 are the same in “Binding Score” value: 2 for the first, 2 for the second.

B23 and B24 are the same in “Binding Score” value: 1 for the first, 1 for the second.

B25 and B26 are the same in “Binding Score” value: 1 for the first, 1 for the second.

First: B27
Second: B28
The “Binding Score” value of the first is lower: 0 for the first, 1 for the second.

B29 and B30 are the same in “Binding Score” value: 0 for the first, 0 for the second.

Compared with B31, B32 is higher in “Binding Score” value: 0 for the first, 2 for the second.

Compared with B33, B34 is higher in “Binding Score” value: 0 for the first, 1 for the second.

In the case of B35, the “Binding Score” value is reported as 1.
